# Measured values as given in the supplement of paper PMC10126150.
# ± gives the standard deviation of the averaged measurements.
# Test system: ATP
# Assay: switch fluorescence ratio, 500 uM ATP over buffer (Cy3 cluster intensity, sum of 5 cycles each) (fold (ratio)); higher = stronger signal-on switching upon ATP binding; sequences stand for … in TCGTCGGCAGCGTCAGATGTGTATAAGAGACAGTTTTTTTTTTTTTTTTTTTTTTTTT…TC
# Conditions: aptamer strand: ATP DNA aptamer (quencher-CACCTGGGGGAGTATTGCGGAGGAAGG + anchor), 100 nM annealed; ATP concentration: 500 uM
# Procedure, shortened: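 Clusters carrying Cy3-labelled switching strands on a modified Illumina MiSeq flow-cell were annealed to 100 nM quencher-labelled ATP aptamer and imaged in selection buffer. They were imaged again after 15 min with 500 uM ATP at 22 °C, over five buffer/ATP cycles with NaOH stripping and re-annealing in between. For each cluster, the fluorescence ratio is the summed Cy3 intensity of the target cycles divided by that of the buffer cycles, averaged per switch-domain sequence. Clusters outside 100-1000 RFU were left out.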
# 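Further: ATP exposure 15 min at 22 °C before imaging.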
row,Sequence,switch fluorescence ratio
1,CGTGGGACTG,1.02 ± 0.017
2,CGTGGGAGGT,0.987 ± 0.036
3,CGTGGGCAAG,0.996 ± 0.021
4,CGTGGGCAGT,0.956 ± 0.041
5,CGTGGGCATT,1.01 ± 0.034
6,CGTGGGCTGT,0.9817 ± 0.0074
7,CGTGGGGAGT,1 ± 0.012
8,CGTGGGGGCG,1.01 ± 0.03
9,CGTGGGGGGA,1.03 ± 0.013
10,CGTGGGGGGG,1.02 ± 0.052
11,CGTGGGTAAG,1.02 ± 0.039
12,CGTGGGTGGG,1.01 ± 0.036
13,CGTGGGTTCC,0.989 ± 0.038
14,CGTGGTATTT,0.982 ± 0.016
15,CGTGGTGCTC,1.07 ± 0.043
16,CGTGGTTGCA,0.989 ± 0.018
17,CGTGGTTGCG,0.962 ± 0.055
18,CGTGTAGTTG,1.02 ± 0.026
19,CGTGTATATC,1.07 ± 0.028
20,CGTGTCATTA,1.01 ± 0.031
21,CGTGTCCTCG,1.04 ± 0.088
22,CGTGTGATTT,0.988 ± 0.025
23,CGTGTGGTAT,1.01 ± 0.042
24,CGTGTGGTCG,0.9325 ± 0.0038
25,CGTGTTAATG,0.989 ± 0.037

row,Sequence,switch fluorescence ratio
1,CGTGTTACGG,0.994 ± 0.046
2,CGTGTTCGGA,0.977 ± 0.016
3,CGTGTTGTTT,1.003 ± 0.01
4,CGTGTTTATA,0.99 ± 0.042
5,CGTGTTTGGG,0.994 ± 0.022
6,CGTGTTTTAT,0.998 ± 0.039
7,CGTTAAATAA,1.004 ± 0.0054
8,CGTTAAATTT,0.994 ± 0.033
9,CGTTAAGAAA,0.994 ± 0.016
10,CGTTAAGTTT,0.9804 ± 0.0066
11,CGTTAATACT,2.98 ± 0.045
12,CGTTAATCGT,1.01 ± 0.021
13,CGTTAATCTA,0.987 ± 0.026
14,CGTTACCGGA,1.01 ± 0.029
15,CGTTACGCGC,1 ± 0.023
16,CGTTACGCTT,1.05 ± 0.066
17,CGTTACGGGA,1.02 ± 0.057
18,CGTTAGAATA,1.017 ± 0.0078
19,CGTTAGCTTT,1.02 ± 0.026
20,CGTTAGTTCT,1 ± 0.029
21,CGTTATCTAG,1.01 ± 0.03
22,CGTTATTTTT,1.016 ± 0.0089
23,CGTTCAATTA,0.996 ± 0.027
24,CGTTCGATAT,1.03 ± 0.03
25,CGTTCGGGTT,0.989 ± 0.044

row,Sequence,switch fluorescence ratio
1,CGTTCTAATT,1.01 ± 0.024
2,CGTTCTGAAT,0.9901 ± 0.0086
3,CGTTCTTGTC,1.05 ± 0.047
4,CGTTGATGTC,1.01 ± 0.13
5,CGTTGATTTG,0.9908 ± 0.0057
6,CGTTGCGAAA,1.02 ± 0.031
7,CGTTGCGCCA,1.02 ± 0.013
8,CGTTGCTCGA,0.9992 ± 0.0064
9,CGTTGGAAGA,1.02 ± 0.015
10,CGTTGGATT,0.986 ± 0.017
11,CGTTGGCAGC,1.03 ± 0.028
12,CGTTGGGGGC,0.998 ± 0.087
13,CGTTGGGTTG,0.987 ± 0.024
14,CGTTGGTGTC,0.9921 ± 0.0085
15,CGTTGGTTCA,1 ± 0.023
16,CGTTGGTTTT,1.04 ± 0.02
17,CGTTGTGACT,0.998 ± 0.021
18,CGTTGTTTCT,0.967 ± 0.024
19,CGTTTAATAT,1 ± 0.033
20,CGTTTACGGA,0.998 ± 0.026
21,CGTTTAGGAC,1.1 ± 0.21
22,CGTTTAGGCT,1.07 ± 0.14
23,CGTTTAGGGG,0.9766 ± 0.0063
24,CGTTTAGGTG,1.02 ± 0.038
25,CGTTTCAAGA,0.9759 ± 0.0019

row,Sequence,switch fluorescence ratio
1,CGTTTCGTTT,0.98 ± 0.039
2,CGTTTGAACT,1.025 ± 0.0094
3,CGTTTGATGG,0.9807 ± 0.0047
4,CGTTTGGGCC,1.01 ± 0.069
5,CGTTTTATCT,1.03 ± 0.025
6,CGTTTTCAGA,0.9966 ± 0.0015
7,CGTTTTCTCG,0.994 ± 0.027
8,CGTTTTTAAG,0.982 ± 0.0052
9,CGTTTTTAGG,1.02 ± 0.024
10,CGTTTTTCGG,0.971 ± 0.0087
11,CGTTTTTGGG,0.985 ± 0.036
12,CGTTTTTTTG,1.014 ± 0.0018
13,CGTTTTTTTT,0.989 ± 0.02
14,CTAAAGCGCG,1.07 ± 0.034
15,CTAAAGGTTC,1.05 ± 0.05
16,CTAAAGTGTG,0.9858 ± 0.0098
17,CTAAAGTTGG,0.995 ± 0.02
18,CTAAATAATA,0.992 ± 0.027
19,CTAACAGGGG,1.426 ± 0.0043
20,CTAACGGACT,1.16 ± 0.068
21,CTAAGAGGGA,0.999 ± 0.025
22,CTAAGATAGC,1.03 ± 0.041
23,CTAAGGGAGG,0.992 ± 0.017
24,CTAAGGGGGA,1 ± 0.018
25,CTAAGGTCTT,1.07 ± 0.11

row,Sequence,switch fluorescence ratio
1,CTAAGTTGGG,1.1 ± 0.13
2,CTAATAATAT,1.01 ± 0.025
3,CTAATAGTGC,1.016 ± 0.0021
4,CTAATGATTG,0.957 ± 0.027
5,CTAATGGGGA,0.981 ± 0.044
6,CTAATGGTAT,0.991 ± 0.022
7,CTAATGGTTT,0.982 ± 0.024
8,CTAATGTGCC,0.993 ± 0.052
9,CTAATTGCCA,0.994 ± 0.017
10,CTAATTGCGA,1 ± 0.016
11,CTAATTGGTT,0.988 ± 0.015
12,CTAATTTAGG,1 ± 0.018
13,CTACAATGTA,1.01 ± 0.021
14,CTACACGCTG,1.01 ± 0.1
15,CTACATGAAA,1.006 ± 0.0034
16,CTACGAAGGG,1.04 ± 0.021
17,CTACGTCATT,1.41 ± 0.095
18,CTACTATAAT,1.04 ± 0.043
19,CTAGAAGCGG,0.983 ± 0.013
20,CTAGACAGGG,1.028 ± 0.0022
21,CTAGACCCGG,0.988 ± 0.027
22,CTAGAGGCGA,1.03 ± 0.026
23,CTAGAGTGAG,1.02 ± 0.049
24,CTAGATCGAT,0.992 ± 0.022
25,CTAGATCGGT,0.982 ± 0.051

row,Sequence,switch fluorescence ratio
1,CTAGATGTTG,0.977 ± 0.0027
2,CTAGCGGTCG,0.997 ± 0.0051
3,CTAGCTTAGC,0.9902 ± 0.0056
4,CTAGGACTTG,0.945 ± 0.026
5,CTAGGATTAA,0.985 ± 0.013
6,CTAGGCACAT,1.1 ± 0.016
7,CTAGGGAAAC,1.002 ± 0.009
8,CTAGGGCACA,1.07 ± 0.1
9,CTAGGGCATG,0.98 ± 0.016
10,CTAGGGGACA,1.04 ± 0.029
11,CTAGGGGGTC,0.993 ± 0.046
12,CTAGGGGGTT,1 ± 0.034
13,CTAGGGGTAT,1.03 ± 0.14
14,CTAGGGTTCT,1.03 ± 0.019
15,CTAGGTCTGT,1 ± 0.011
16,CTAGGTGGTT,0.991 ± 0.04
17,CTAGGTTTTG,0.995 ± 0.047
18,CTAGTAAGCG,0.998 ± 0.048
19,CTAGTCCTGA,0.986 ± 0.043
20,CTAGTGACTA,0.987 ± 0.032
21,CTAGTGAGTT,0.999 ± 0.023
22,CTAGTGGGTT,0.973 ± 0.02
23,CTAGTTATGA,1.02 ± 0.016
24,CTAGTTGGTC,0.981 ± 0.033
25,CTAGTTTTTT,0.9893 ± 0.0062

row,Sequence,switch fluorescence ratio
1,CTATAATCTA,0.976 ± 0.041
2,CTATATACCA,1.06 ± 0.043
3,CTATATTAGT,1 ± 0.045
4,CTATCTTTAG,0.9891 ± 0.0043
5,CTATGAGTGA,1.01 ± 0.018
6,CTATGATCTT,0.992 ± 0.012
7,CTATGATTGT,0.977 ± 0.04
8,CTATGCTCAC,1.45 ± 0.041
9,CTATGGCTGG,0.981 ± 0.017
10,CTATGGGGGA,1.04 ± 0.02
11,CTATGTTGTT,1 ± 0.018
12,CTATTAAGGT,0.98 ± 0.021
13,CTATTACGTC,0.984 ± 0.045
14,CTATTATGTG,0.985 ± 0.043
15,CTATTATTCG,1.01 ± 0.045
16,CTATTTGAGG,0.9825 ± 0.004
17,CTCAATGACT,1.02 ± 0.016
18,CTCAATGTAT,0.989 ± 0.032
19,CTCAATTTTA,0.9743 ± 0.006
20,CTCACCACGA,1.09 ± 0.057
21,CTCACTAGCG,1.02 ± 0.031
22,CTCACTGCAT,1.46 ± 0.11
23,CTCAGCAGTC,1.2 ± 0.034
24,CTCAGCCAGT,1.29 ± 0.056
25,CTCAGGGATT,1.07 ± 0.033

row,Sequence,switch fluorescence ratio
1,CTCAGTAGGG,0.975 ± 0.024
2,CTCAGTATCG,1.012 ± 0.002
3,CTCATAACAT,1.01 ± 0.032
4,CTCATAGGGA,0.983 ± 0.024
5,CTCATTTATT,0.98 ± 0.064
6,CTCCAGACGA,1.47 ± 0.083
7,CTCCGGCGGG,1.18 ± 0.057
8,CTCCGGGAAA,1.214 ± 0.0036
9,CTCCTGGCCA,1.13 ± 0.014
10,CTCCTTAGTT,1.05 ± 0.035
11,CTCCTTTTTC,0.976 ± 0.057
12,CTCGACATTT,1.02 ± 0.027
13,CTCGATAGTA,0.9741 ± 0.003
14,CTCGCAGGGG,1.37 ± 0.2
15,CTCGCATGGT,1.37 ± 0.024
16,CTCGCCGATA,1.03 ± 0.031
17,CTCGCGGGTG,1.14 ± 0.11
18,CTCGGATTGG,1 ± 0.015
19,CTCGGCCGAG,0.982 ± 0.016
20,CTCGGGGGGG,0.998 ± 0.028
21,CTCGGGTGGT,0.997 ± 0.061
22,CTCGTAAACG,1 ± 0.02
23,CTCGTATCAG,1.01 ± 0.021
24,CTCGTCCTTA,1.019 ± 0.0051
25,CTCGTCGTAT,1.06 ± 0.05
